This experiment addresses human IgE myeloma protein (American Biosystems, Inc. cat. no. A113) (human). Nature of the experiment: ELISA negative control run with each assay (human IgE ELISA and peptide ELISAs). (In general: An ELISA detects its analyte on a solid surface through an enzyme-linked reagent.)

human IgE myeloma protein (American Biosystems, Inc. cat. no. A113) (human), sequence (heavy, as listed by the source): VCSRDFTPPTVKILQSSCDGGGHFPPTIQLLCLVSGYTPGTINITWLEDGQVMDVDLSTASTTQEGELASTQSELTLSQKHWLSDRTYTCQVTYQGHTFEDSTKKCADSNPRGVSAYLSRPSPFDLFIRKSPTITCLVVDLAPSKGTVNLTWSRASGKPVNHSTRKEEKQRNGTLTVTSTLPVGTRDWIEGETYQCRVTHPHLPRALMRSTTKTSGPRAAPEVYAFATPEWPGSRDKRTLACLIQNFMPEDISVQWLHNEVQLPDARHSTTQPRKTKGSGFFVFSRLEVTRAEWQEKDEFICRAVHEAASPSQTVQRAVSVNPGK

“diluted normal guinea pig control samples (antibody)” came in with an A492 of less than 0.15 A492.

The record behind these values is US20050250934A1.
